{
  "source": "patent US8697366B2",
  "about": "“Anti-cancer drug screening method using RORα” (Seoul National University Industry Foundation, priority 2009, dated 2014)",
  "molecules": {"B1": {"name": "Wnt5a: a noncanonical Wnt ligand (protein, UniProt P41221 62-380, looked up)", "Protein Wnt-5a": "IIGAQPLCSQLAGLSQGQKKLCHLYQDHMQYIGEGAKTGIKECQYQFRHRRWNCSTVDNTSVFGRVMQIGSRETAFTYAVSAAGVVNAMSRACREGELSTCGCSRAARPKDLPRDWLWGGCGDNIDYGYRFAKEFVDARERERIHAKGSYESARILMNLHNNEAGRRTVYNLADVACKCHGVSGSCSLKTCWLQLADFRKVGDALKEKYDSAAAMRLNSRGKLVQVNSRFNSPTTQDLVYIDPSPDYCVRNESTGSLGTQGRLCNKTSEGMDGCELMCCGRGYDQFKTVQTERCHCKFHWCCYVKCKKCTEIVDQFVCK"}},
  "type_in_all_cases": "cell-based",
  "key": {"cyclin D1": {"tested_on": "cyclin D1", "experiment": "Immunoblot of cyclin D1 expression in colon cancer cells", "text": "(§1) (A) Treatment of Wnt5a increased phosphorylated RORα and PKCα but decreased cyclin D1 expression as assessed by immunoblot analysis against each antibody."}, "RORα": {"tested_on": "RORα", "experiment": "Phosphorylation of RORα in HCT116 cells (immunoprecipitation / immunoblot with anti-phospho-Ser or anti-phospho-RORαS35 antibody)", "settings": "HCT116 cells, treatment alone", "protocol": "(A) Schematic representation of RORα showing the location of the N-terminal domain (NTD), the DNA-binding domain (DBD), the hinge region, the ligand-binding domain (LBD), and the AF-2 domain. […] HEK293 cells were cotransfected with plasmids expressing each His-tagged RORα deletion construct and β-catenin. Whole cell extracts (left panel) and Ni^+-NTA-agarose pulldown materials (right panel) were analyzed by immunoblotting against anti-β-catenin IgG or anti-Xpress IgG. (C) Illustration of the structure of deletion fragments of RORα(SEQ ID NO:17). (D) Interaction of each RORα deletion construct with HisMax-β-catenin was assessed by Ni^+-NTA-agarose pulldown assay. […] The phosphorylated peptide samples were analyzed by LC-MS analysis. […] Immunoprecipitation assay was conducted with anti-Flag antibody, and the phosphorylated RORα was detected by immunoblot analysis with anti-phospho-Ser antibody. […] The reaction samples were subjected to 12% SDSPAGE, and phosphorylated RORα was detected by autoradiography. […] The fluorescence-conjugated secondary antibody was visualized using fluorescence microscopy, and nuclear staining with DAPI was shown.\n(A) The specificity of the antibody raised against phosphorylated RORαS35 peptide (SEQ ID NO:18) was assessed by dot blot analysis. (B) Treatment of TPA increased phophorylated RORα on S35 site as assessed by immunoprecipitation with anti-phospho-RORαS35 antibody. […]"}, "cyclin D1 transcript": {"tested_on": "cyclin D1 transcript", "experiment": "Real-time quantitative RT-PCR of the cyclin D1 transcript in HCT116 cells", "protocol": "The abundance of mRNA was detected by an ABI prism 7300 system with SYBR Green (molecular probes). Primer pairs were designed to amplify 90-150 bp mRNA specific fragments, and confirmed to be unique products by melting curve analysis. The PCR conditions were 95° C. (5 min) and 40 cycles of 95° C. (30 s), 57° C. (30 s), and 72° C. (30 s).\nThe quantity of mRNA was calculated using the ΔΔCt method and normalized by using primers to detect β-actin or HPRT. All reactions were performed in triplicates."}, "cyclin D1 promoter": {"tested_on": "cyclin D1 promoter", "experiment": "ChIP assay on the cyclin D1 promoter in HCT116 cells", "protocol": "(A) The specificity of the antibody raised against phosphorylated RORαS35 peptide (SEQ ID NO:18) was assessed by dot blot analysis. (B) Treatment of TPA increased phophorylated RORα on S35 site as assessed by immunoprecipitation with anti-phospho-RORαS35 antibody. […] (D) Treatment of Go6976, a PKCα inhibitor, abolished TPA-dependent phosphorylation of RORα as assessed by immonoblotting with anti-phospho-RORαS35 antibody. (E) HCT116 cells were transfected with Flag-RORα WT, S35D, or S35A, and the cell extracts were immunoprecipitated with anti-Flag antibody followed by immunoblotting against anti-β-catenin antibody. (F) Coimmunoprecipitation assay of β-catenin with either RORαWT or S35A in HCT116 cells after treatment with TPA in the absence or presence of Go6976. (G) ChIP analysis on the cyclin D1 promoter after transfection with Flag-RORαWT, S35A, or S35D in HCT116 cells. (H) ChIP analysis on the cyclin D1 promoter in HCT116 cells after TPA treatment for indicated time. (I) ChIP assay was performed on the cyclin D1 promoter in the absence or presence of siRNA against PKCα with treatment of TPA for 90 min. (J) Real-time quantitative RT-PCR analysis of the cyclin D1 transcript in HCT116 cells in the presence of TPA for indicated time. (K) Knockdown effect of siRNA against RORα or PKCα was assessed in the expression of the cyclin D1 transcript in HCT116 cells.\n(B) Cyclin D1 transcript was measured after introducing siRNAs against RORα or PKCα in the presence of Wnt5a in HCT116 cells. (C) Real-time quantitative RTPCR analysis of the cyclin D1 transcript in HCT116 cells after introducing RORα, S35A, or S35D in the presence of Wnt5a. (D) […] on the cyclin D1 promoter with treatment of either TPA or Wnt5a in HCT116 cells. Occupancy of the cyclin D1 promoter by phosphorylated RORα, β-catenin, RNA polymerase II, H3K9me2, H3K4me2, CBP, pCAF, p300, or SMRT was indicated. (E) Transwell cell migration assay for RORα, RORαS35A, or RORαS35D-expressing HCT116 cells with treatment of Wnt5a. Values are represented as mean±s.d. for three independent experiments. (F) The anchorage-independent growth of HCT116 cells expressing RORα, RORαS35A, or RORαS35D in soft agar. Values are expressed as mean±SEM for two experiments in 6 place wells. Colonies were counted in 10 different fields and total colony number/well was calculated. Representative image is shown for each group.\nThe ChIP, two-step ChIP, and shRNA-coupled ChIP assays were conducted as previously described (Baek et al., 2002; Kim et al., 2005)."}, "[1]": {"tested_on": "HCT116 colon cancer cells", "experiment": "Transwell cell migration assay", "settings": "Wnt5a 100 ng/ml pretreatment 2 hr, compared to non-treated cells", "protocol": "HCT116 cells stably expressing RORα, RORαS35A, or RORαS35D were used in Transwell cell migration assays along with control cells. Transwell cell migration assay was conducted as previously described (Kim et al., 2006). Cultured cells were pretreated with Wnt5a (100 ng/ml) for 2 hr, and 2.5×10^4HCT116 cells were loaded onto the top of a 24-well Transwell chamber assay plate (BD Biosciences). Conditioned McCoy's 5A medium containing 15% fetal bovine serum was added to the bottom chamber as a chemoattractant. After 22 hr incubation, the cells that had migrated to the lower chamber of the filter were fixed with 100% methanol, stained with DAPI, and quantified by counting the total number of cells in four different fields. All experimental studies were performed according to the manufacturer's protocols. Values are expressed as means±standard deviations for at least three independent experiments."}, "PKCα": {"tested_on": "PKCα", "experiment": "Immunoblot against anti-phospho-PKCα antibody after Wnt5a treatment", "settings": "anti-phospho-PKCα antibody (active form)", "text": "as §1"}},
  "note": "Entries after “also recorded” stand apart in the source; their conditions may differ.",
  "data": [
    {"molecule": "B1", "values": [
      {"measurement": "cyclin D1 expression", "setting": "cyclin D1", "value": "downregulation; also recorded: decreased"},
      {"measurement": "phosphorylation of RORα", "setting": "RORα", "value": "increased phosphorylation"},
      {"measurement": "cyclin D1 transcript", "setting": "cyclin D1 transcript", "value": "reduced"},
      {"measurement": "RNA polymerase II recruitment on the cyclin D1 promoter", "setting": "cyclin D1 promoter", "value": "decreased"},
      {"measurement": "methylation of histone H3K9 on the cyclin D1 promoter", "setting": "cyclin D1 promoter", "value": "increased methylation"},
      {"measurement": "recruitment of CBP, p300, and pCAF coactivators to the cyclin D1 promoter", "setting": "cyclin D1 promoter", "value": "significantly decreased"},
      {"measurement": "recruitment of phosphorylated RORα on the cyclin D1 promoter", "setting": "cyclin D1 promoter; anti-phospho-RORαS35 IgG", "value": "increased the recruitment"},
      {"measurement": "migration of HCT116 colon cancer cells", "setting": "[1]", "value": "attenuated"},
      {"measurement": "phosphorylation of PKCα", "setting": "PKCα", "value": "increased phosphorylation"}
    ]}
  ]
}
